In this assay the target is human complement protein C1q (human) (UniProt P02745). Briefly: ELISA, 10 µg/ml human C1q, detection with HRP-conjugated anti-C1q antibody, antibody concentration varied. For orientation: ELISA stands for enzyme-linked immunosorbent assay.
human complement protein C1q (human), sequence (P02745 23-245 limits assumed, chain 1 of 3): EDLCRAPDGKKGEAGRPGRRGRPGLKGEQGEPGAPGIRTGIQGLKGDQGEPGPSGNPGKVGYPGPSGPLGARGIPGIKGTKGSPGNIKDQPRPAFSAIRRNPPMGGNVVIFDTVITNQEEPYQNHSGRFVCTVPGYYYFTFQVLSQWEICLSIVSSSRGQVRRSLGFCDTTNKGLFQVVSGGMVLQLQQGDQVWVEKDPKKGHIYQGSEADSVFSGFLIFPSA
human complement protein C1q (human), sequence (P02746 28-253 limits assumed, chain 2 of 3, further chain): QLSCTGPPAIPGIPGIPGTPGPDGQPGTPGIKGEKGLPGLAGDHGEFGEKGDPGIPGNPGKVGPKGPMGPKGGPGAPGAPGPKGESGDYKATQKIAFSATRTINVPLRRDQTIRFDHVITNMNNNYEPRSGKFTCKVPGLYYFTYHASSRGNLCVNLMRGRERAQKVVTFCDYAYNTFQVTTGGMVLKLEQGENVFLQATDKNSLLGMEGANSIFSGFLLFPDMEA
human complement protein C1q (human), sequence (P02747 29-245 limits assumed, chain 3 of 3, further chain): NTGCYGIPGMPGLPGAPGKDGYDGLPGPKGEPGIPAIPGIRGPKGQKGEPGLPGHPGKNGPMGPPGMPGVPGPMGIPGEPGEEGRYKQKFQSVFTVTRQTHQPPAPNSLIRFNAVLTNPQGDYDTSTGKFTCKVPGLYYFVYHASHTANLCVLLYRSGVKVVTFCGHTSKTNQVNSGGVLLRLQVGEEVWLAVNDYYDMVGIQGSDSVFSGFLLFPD

Consider Rituximab (antibody), for which the EC50 (read off the curve) stood at 2 µg/mL.

The EC50 (read off the curve) is the concentration needed to bring the measured effect to its halfway point. High values mean a need for much substance, low ones an effect from little substance.

Values taken from patent US20260055172A1.
